Measurements from paper PMC2850172.

Substrate: O=c1ccn([C@@H]2O[C@H](COP(=O)(O)OP(=O)(O)O[C@H]3OC[C@@H](O)[C@H](O)[C@H]3O)[C@@H](O)[C@H]2O)c(=O)[nH]1
Experiment: cells, lysate or membranes
Settings: Pichia-expressed; conditions not stated

B1: Pichia-expressed form of XT-I (Homo sapiens) (protein)
chain: PKCDISGKEAISALSRAKSKHCRQEIGETYCRHKLGLLMPEKVTRFCPLEGKANKNVQWDEDSVEYMPANPVRIAFVLVVHGRASRQLQRMFKAIYHKDHFYYIHVDKRSNYLHRQVLQVSRQYSNVRVTPWRMATIWGGASLLSTYLQSMRDLLEMTDWPWDFFINLSAADYPIRTNDQLVAFLSRYRDMNFLKSHGRDNARFIRKQGLDRLFLECDAHMWRLGDRRIPEGIAVDGGSDWFLLNRRFVEYVTFSTDDLVTKMKQFYSYTLLPAESFFHTVLENSPHCDTMVDNNLRITNWNRKLGCKCQYKHIVDWCGCSPNDFKPQDFHRFQQTARPTFFARKFEAVVNQEIIGQLDYYLYGNYPAGTPGLRSYWENVYDEPDGIHSLSDVTLTLYHSFARLGLRRAETSLHTDGENSCRYYPMGHPASVHLYFLADRFQGFLIKHHATNLAVSKLETLETWVMPKKVFKIASPPSDFGRLQFSEVGTDWDAKERLFRNFGGLLGPMDEPVGMQKWGKGPNVTVTVIWVDPVNVIAATYDILIESTAEFTHYKPPLNLPLRPGVWTVKILHHWVPVAETKFLVAPLTFSNRQPIKPEEALKLHNGPLRNAYMEQSFQSLNPVLSLPINPAQVEQARRNAASTGTALEGWLDSLVGGMWTAMDICATGPTACPVMQTCSQTAWSSFSPDPKSELGAVKPDGRLR
For B1, the Km was 300 µM.
